Measurements as given in the supplement of paper PMC12855868.

B1: library; numbered along this chain (parent)
chain: MAAAGGARLLRAASAVLGGPAGRWLHHAGSRAGSSGLLRNRGPGGSAEASRSLSVSARARSSSEDKITVHFINRDGETLTTKGKVGDSLLDVVVENNLDIDGFGACEGTLACSTCHLIFEDHIYEKLDAITDEENDMLDLAYGLTDRSRLGCQICLTKSMDNMTVRVPETVADARQSIDVGKTS

Variants of: B1
Assay: scaled log2 fold change in cell abundance, elesclomol vs control (0 = silent mean, 1 = nonsense mean) (scaled log2 ratio); higher = higher viability under elesclomol (loss of FDX1 cuproptosis function)
Settings: glucose 10 mM
[1] = with ABC1 FDX1 KO, elesclomol 5 nM, 14 days
[2] = with HEK293T FDX1 KO, elesclomol 40 nM, 11 days
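Further: variant abundance is its share of total variant reads in each endpoint sample, from next-generation sequencing of the integrated ORF PCR-amplified out of genomic DNA.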

Row | Variant | scaled log2 fold change [1] | scaled log2 fold change [2]
1 | S35M | 0.309 | 0.0177
2 | S35K | 0.175 | 0.17
3 | S35L | -0.141 | -0.673
4 | S30L | 0.0325 | –
5 | S30F | -0.244 | -0.2
6 | S177E | -0.0815 | -0.019
7 | S177A | -0.0907 | –
8 | L25P | 0.318 | 1.23
9 | L25C | 0.238 | 0.0546
10 | L25G | -0.623 | –
11 | L25N | -0.498 | –
12 | P20E | 0.162 | 1.08
13 | P20S | -0.324 | –
14 | Q153R | -0.0672 | 1.14
15 | Q153G | 0.48 | -0.652
16 | Q153M | -0.153 | -0.595
17 | R58P | 0.228 | 0.00503
18 | R58N | -0.417 | -0.0662
19 | S159L | -0.241 | 0.847
20 | A4S | 0.221 | 0.988
21 | H70L | -0.219 | -0.612

Row | Variant | scaled log2 fold change [1] | scaled log2 fold change [2]
22 | S14C | 0.43 | -0.264
23 | S14D | 0.306 | –
24 | Y142G | -0.302 | -0.393
25 | Y142P | -1.37 | –
26 | A15F | -0.0557 | -0.87
27 | A15T | 0.322 | -0.179
28 | R51W | 0.239 | 1.75
29 | G44P | -0.094 | 0.309
30 | G44T | -0.238 | 0.0578
31 | G44S | 0.141 | -0.291
32 | H122Q | -0.0669 | 0.352
33 | H122W | 0.634 | -0.608
34 | E48F | 0.809 | 0.523
35 | E48W | 0.73 | 0.677
36 | E48A | 0.411 | 0.683
37 | S61Y | 0.603 | 1.51
38 | D75W | 0.241 | -0.146
39 | E120W | 0.298 | -0.149
40 | V55H | 0.0403 | 1.23
41 | V55L | -0.283 | –
42 | N162A | 0.23 | 0.844

Row | Variant | scaled log2 fold change [1] | scaled log2 fold change [2]
43 | L17G | 0.217 | -0.178
44 | L17F | -0.361 | 0.252
45 | R39G | 0.577 | 0.061
46 | R39E | -0.217 | 0.936
47 | G76M | 0.321 | -0.269
48 | G33F | 0.0743 | 0.637
49 | G42W | 0.29 | 1
50 | V92P | 0.511 | 0.131
51 | V92D | 1.07 | 1.13
52 | S88A | 0.0293 | 0.31
53 | R74M | -0.486 | 0.445
54 | R74E | -0.261 | –
55 | L144F | -0.293 | 1.23
56 | L144M | 0.249 | -0.887
57 | L144A | 0.157 | -0.304
58 | L144V | -0.402 | -0.057
59 | L144Q | 0.137 | -1.45
60 | T68E | -0.318 | -0.497
61 | T68S | -0.0825 | 0.833
